Blank lines part the entries; values can stand above or below the binder they belong to.
Target: T1, CEP90 (overexpressed) (UniProt Q8WXW3 1-757)
T1 construct: CEP90 (PIBF1), cDNA clone from Dharmacon horizondiscovery; no tag is named; also called overexpressed CEP90; source: U2OS, transfected (lipofectamine 2000), in cells
T1 sequence (looked up): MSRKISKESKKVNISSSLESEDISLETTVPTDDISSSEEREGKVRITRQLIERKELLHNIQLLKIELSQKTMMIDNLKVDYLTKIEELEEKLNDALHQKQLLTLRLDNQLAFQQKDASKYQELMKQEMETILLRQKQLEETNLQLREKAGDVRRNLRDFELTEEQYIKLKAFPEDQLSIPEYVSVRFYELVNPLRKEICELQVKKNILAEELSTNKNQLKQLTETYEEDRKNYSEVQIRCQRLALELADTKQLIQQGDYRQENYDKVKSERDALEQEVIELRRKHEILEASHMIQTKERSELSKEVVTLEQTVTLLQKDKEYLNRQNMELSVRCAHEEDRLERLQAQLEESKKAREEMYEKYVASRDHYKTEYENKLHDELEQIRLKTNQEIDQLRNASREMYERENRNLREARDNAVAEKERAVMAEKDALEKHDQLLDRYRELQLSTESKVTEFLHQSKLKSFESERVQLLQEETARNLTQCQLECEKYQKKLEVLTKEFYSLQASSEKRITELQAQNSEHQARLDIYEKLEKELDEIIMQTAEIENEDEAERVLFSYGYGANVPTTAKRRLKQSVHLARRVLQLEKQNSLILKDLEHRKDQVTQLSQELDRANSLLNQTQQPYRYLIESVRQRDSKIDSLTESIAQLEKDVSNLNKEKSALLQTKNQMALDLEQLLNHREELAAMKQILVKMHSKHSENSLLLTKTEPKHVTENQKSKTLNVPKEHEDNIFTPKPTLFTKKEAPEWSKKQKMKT
Experiment: microtubule recruitment (displacement) assay; U2OS cotransfected with MNR-GFP and CEP90, OFD1 mCherry or myc-FOPNL, 24 h; endogenous OFD1, CEP90, CEP83, CEP89, CEP164 stained; percent of cells with the endogenous protein on microtubules, 100 < N < 150 cells per condition, 3 experiments
Conditions: partners not purified

- percent of cells with the endogenous protein on microtubules: 63.3%
B1: OFD1 (endogenous) (natural protein, UniProt O75665 1-1012, looked up)
chain: MMAQSNMFTVADVLSQDELRKKLYQTFKDRGILDTLKTQLRNQLIHELMHPVLSGELQPRSISVEGSSLLIGASNSLVADHLQRCGYEYSLSVFFPESGLAKEKVFTMQDLLQLIKINPTSSLYKSLVSGSDKENQKGFLMHFLKELAEYHQAKESCNMETQTSSTFNRDSLAEKLQLIDDQFADAYPQRIKFESLEIKLNEYKREIEEQLRAEMCQKLKFFKDTEIAKIKMEAKKKYEKELTMFQNDFEKACQAKSEALVLREKSTLERIHKHQEIETKEIYAQRQLLLKDMDLLRGREAELKQRVEAFELNQKLQEEKHKSITEALRRQEQNIKSFEETYDRKLKNELLKYQLELKDDYIIRTNRLIEDERKNKEKAVHLQEELIAINSKKEELNQSVNRVKELELELESVKAQSLAITKQNHMLNEKVKEMSDYSLLKEEKLELLAQNKLLKQQLEESRNENLRLLNRLAQPAPELAVFQKELRKAEKAIVVEHEEFESCRQALHKQLQDEIEHSAQLKAQILGYKASVKSLTTQVADLKLQLKQTQTALENEVYCNPKQSVIDRSVNGLINGNVVPCNGEISGDFLNNPFKQENVLARMVASRITNYPTAWVEGSSPDSDLEFVANTKARVKELQQEAERLEKAFRSYHRRVIKNSAKSPLAAKSPPSLHLLEAFKNITSSSPERHIFGEDRVVSEQPQVGTLEERNDVVEALTGSAASRLRGGTSSRRLSSTPLPKAKRSLESEMYLEGLGRSHIASPSPCPDRMPLPSPTESRHSLSIPPVSSPPEQKVGLYRRQTELQDKSEFSDVDKLAFKDNEEFESSFESAGNMPRQLEMGGLSPAGDMSHVDAAAAAVPLSYQHPSVDQKQIEEQKEEEKIREQQVKERRQREERRQSNLQEVLERERRELEKLYQERKMIEESLKIKIKKELEMENELEMSNQEIKDKSAHSENPLEKYMKIIQQEQDQESADKSSKKMVQEGSLVDTLQSSDKVESLTGFSHEELDDSW
notes: OFD1, endogenous human protein; source: endogenous: HEK293 Flp-In cells (BioID); Hela Kyoto lysate (co-IP); U2OS cells (microtubule recruitment assay)

- percent of cells with the endogenous protein on microtubules: 66.7%
B2: CEP83 (endogenous) (natural protein, human (endogenous in U2OS), UniProt Q9Y592 1-701, looked up)
chain: MVVSTFTDMDTFPNNFPPGGDSGLTGSQSEFQKMLIDERLRCEHHKANYQTLKAEHTRLQNEHVKLQNELKHLFNEKQTQQEKLQLLLEELRGELVEKTKDLEEMKLQILTPQKLELLRAQIQQELETPMRERFRNLDEEVEKYRAVYNKLRYEHTFLKSEFEHQKEEYARILDEGKIKYESEIARLEEDKEELRNQLLNVDLTKDSKRVEQLAREKVYLCQKLKGLEAEVAELKAEKENSEAQVENAQRIQVRQLAEMQATVRSLEAEKQSANLRAERLEKELQSSSEQNTFLINKLHKAEREINTLSSKVKELKHSNKLEITDIKLETARAKSELERERNKIQSELDGLQSDNEILKAAVEHHKVLLVEKDRELIRKVQAAKEEGYQKLVVLQDEKLELENRLADLEKMKVEHDVWRQSEKDQYEEKLRASQMAEEITRKELQSVRLKLQQQIVTIENAEKEKNENSDLKQQISSLQIQVTSLAQSENDLLNSNQMLKEMVERLKQECRNFRSQAEKAQLEAEKTLEEKQIQWLEEKHKLHERITDREEKYNQAKEKLQRAAIAQKKRKSLHENKLKRLQEKVEVLEAKKEELETENQVLNRQNVPFEDYTRLQKRLKDIQRRHNEFRSLILVPNMPPTASINPVSFQSSAMVPSMELPFPPHMQEEQHQRELSLLRKRLEELETTQRKQLEELGSSGE
notes: CEP83, endogenous human protein; also called endogenous CEP83; source: endogenous, U2OS cells

From publication PMC9484695, “The evolutionary conserved proteins CEP90, FOPNL, and OFD1 recruit centriolar distal appendage proteins to initiate their assembly” (PLoS Biology, 2022)
